Measured values from PMC6368398.

Columns and labels:
scRad52 = scRad52 (Saccharomyces cerevisiae, UniProt P06778 1-471); experiment: FRET
[1] = molecular target: RPA-wt (RPA70-RPA32-RPA14 heterotrimer) (Saccharomyces cerevisiae, UniProt P22336;P26754;P26755 1-621;1-273;1-122); experiment: FRET
RPA-wt (RPA70-RPA32-RPA14 heterotrimer), sequence (P22336 whole entry, chain 1 of 3): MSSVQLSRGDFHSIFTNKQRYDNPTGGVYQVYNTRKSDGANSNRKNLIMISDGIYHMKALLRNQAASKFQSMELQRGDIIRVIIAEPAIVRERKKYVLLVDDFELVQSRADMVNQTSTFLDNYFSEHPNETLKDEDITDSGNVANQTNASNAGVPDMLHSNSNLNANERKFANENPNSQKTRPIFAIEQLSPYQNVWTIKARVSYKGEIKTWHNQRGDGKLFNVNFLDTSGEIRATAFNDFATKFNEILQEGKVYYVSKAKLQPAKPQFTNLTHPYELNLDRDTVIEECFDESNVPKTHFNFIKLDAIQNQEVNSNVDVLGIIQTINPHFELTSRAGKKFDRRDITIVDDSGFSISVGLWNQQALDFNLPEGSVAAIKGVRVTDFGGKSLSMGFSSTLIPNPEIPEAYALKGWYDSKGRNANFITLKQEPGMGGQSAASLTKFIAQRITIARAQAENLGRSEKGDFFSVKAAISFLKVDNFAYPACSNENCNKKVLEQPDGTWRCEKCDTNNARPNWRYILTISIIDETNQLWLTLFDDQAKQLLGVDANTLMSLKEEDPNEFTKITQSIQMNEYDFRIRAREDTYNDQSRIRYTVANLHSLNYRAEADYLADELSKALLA
RPA-wt (RPA70-RPA32-RPA14 heterotrimer), sequence (P26754 whole entry, chain 2 of 3): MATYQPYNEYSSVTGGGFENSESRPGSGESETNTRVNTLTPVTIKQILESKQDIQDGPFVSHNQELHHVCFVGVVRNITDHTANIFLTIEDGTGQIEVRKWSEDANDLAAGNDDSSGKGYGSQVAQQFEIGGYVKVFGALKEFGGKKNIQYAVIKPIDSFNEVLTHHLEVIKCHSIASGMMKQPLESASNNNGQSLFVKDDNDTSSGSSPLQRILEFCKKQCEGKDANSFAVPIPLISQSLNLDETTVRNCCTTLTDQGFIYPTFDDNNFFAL
RPA-wt (RPA70-RPA32-RPA14 heterotrimer), sequence (P26755 whole entry, chain 3 of 3): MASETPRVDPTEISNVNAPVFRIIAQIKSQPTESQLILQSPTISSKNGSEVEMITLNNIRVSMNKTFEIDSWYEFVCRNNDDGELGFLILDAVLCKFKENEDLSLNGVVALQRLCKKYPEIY

scRad52, sequence (P06778 whole entry): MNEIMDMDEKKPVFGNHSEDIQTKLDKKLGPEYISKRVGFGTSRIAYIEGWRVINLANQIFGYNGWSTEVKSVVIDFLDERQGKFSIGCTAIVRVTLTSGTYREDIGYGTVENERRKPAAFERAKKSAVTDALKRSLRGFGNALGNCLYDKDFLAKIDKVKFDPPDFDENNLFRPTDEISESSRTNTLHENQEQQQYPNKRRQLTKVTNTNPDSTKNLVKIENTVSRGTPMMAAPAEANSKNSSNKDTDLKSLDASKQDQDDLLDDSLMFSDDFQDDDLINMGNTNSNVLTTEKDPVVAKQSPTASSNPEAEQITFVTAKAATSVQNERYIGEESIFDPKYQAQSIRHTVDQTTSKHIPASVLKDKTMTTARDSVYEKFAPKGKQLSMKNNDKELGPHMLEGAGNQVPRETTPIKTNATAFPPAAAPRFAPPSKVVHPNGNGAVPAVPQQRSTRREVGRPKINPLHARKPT

Which results are given for TTTTTTTTTTTTTTTTTTTTTTTTTTTTTT (ssDNA) [Cy3-dT30-Cy5]?
binding result (scRad52): binds; binding result [1]: binds
